Results: patent US20100204147A1, “Methods For Delivering Thymosin Beta 4, Analogues, Isoforms and Other Derivatives” (REGENERX BIOPHARMACEUTICALS, INC., priority 2003, published 2010)

Columns and labels:
Test in all cases: cell-based or functional assay
[1] = biological target: Fibrin (made from human fibrinogen with bovine thrombin) (human) (UniProt P02671)
[2] = biological target: Human fibrinogen depleted of plasminogen, fibronectin and von Willebrand factor (human) (UniProt P02671)
[3] = biological target: Recombinant γ-module comprising residues 148-411 of the human fibrinogen γ chain (human) (UniProt P02679)

degree of factor XIIIa-mediated incorporation after 4 hours (spectrophotometric) (moles per mole) [1]	degree of factor XIIIa-mediated incorporation after 4 hours (spectrophotometric) (moles per mole) [2]	apparent Michaelis constant (Km) for the reaction of incorporation by factor XIIIa [3]	Substance
0.4	0.2	–	FITC-labeled thymosin β4 (from UniProt P62328 2-44) (peptide)
–	–	183 µM	Synthetic thymosin β4 (from UniProt P62328 2-44) (peptide)
